Assay results as given in IntAct's records for PubMed 25910212.

B1: U4/U6 small nuclear ribonucleoprotein Prp31 (Homo sapiens), Q8WWY3 (parent)
chain: MSLADELLADLEEAAEEEEGGSYGEEEEEPAIEDVQEETQLDLSGDSVKTIAKLWDSKMFAEIMMKIEEYISKQAKASEVMGPVEAAPEYRVIVDANNLTVEIENELNIIHKFIRDKYSKRFPELESLVPNALDYIRTVKELGNSLDKCKNNENLQQILTNATIMVVSVTASTTQGQQLSEEELERLEEACDMALELNASKHRIYEYVESRMSFIAPNLSIIIGASTAAKIMGVAGGLTNLSKMPACNIMLLGAQRKTLSGFSSTSVLPHTGYIYHSDIVQSLPPDLRRKAARLVAAKCTLAARVDSFHESTEGKVGYELKDEIERKFDKWQEPPPVKQVKPLPAPLDGQRKKRGGRRYRKMKERLGLTEIRKQANRMSFGEIEEDAYQEDLGFSLGHLGKSGSGRVRQTQVNEATKARISKTLQRTLQKQSVVYGGKSTIRDRSSGTASSVAFTPLQGLEIVNPQAAEKKVAEANQKYFSSMAEFLKVKGEKSGLMST
partner: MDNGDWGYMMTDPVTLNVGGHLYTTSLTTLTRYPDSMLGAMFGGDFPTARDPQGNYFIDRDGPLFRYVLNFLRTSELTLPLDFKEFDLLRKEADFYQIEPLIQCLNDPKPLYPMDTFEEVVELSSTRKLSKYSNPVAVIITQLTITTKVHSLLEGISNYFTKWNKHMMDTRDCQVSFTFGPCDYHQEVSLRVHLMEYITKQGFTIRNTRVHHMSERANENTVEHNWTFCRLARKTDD
B2: U4/U6 small nuclear ribonucleoprotein Prp3 (Homo sapiens), O43395 (parent)
chain: MALSKRELDELKPWIEKTVKRVLGFSEPTVVTAALNCVGKGMDKKKAADHLKPFLDDSTLRFVDKLFEAVEEGRSSRHSKSSSDRSRKRELKEVFGDDSEISKESSGVKKRRIPRFEEVEEEPEVIPGPPSESPGMLTKLQIKQMMEAATRQIEERKKQLSFISPPTPQPKTPSSSQPERLPIGNTIQPSQAATFMNDAIEKARKAAELQARIQAQLALKPGLIGNANMVGLANLHAMGIAPPKVELKDQTKPTPLILDEQGRTVDATGKEIELTHRMPTLKANIRAVKREQFKQQLKEKPSEDMESNTFFDPRVSIAPSQRQRRTFKFHDKGKFEKIAQRLRTKAQLEKLQAEISQAARKTGIHTSTRLALIAPKKELKEGDIPEIEWWDSYIIPNGFDLTEENPKREDYFGITNLVEHPAQLNPPVDNDTPVTLGVYLTKKEQKKLRRQTRREAQKELQEKVRLGLMPPPEPKVRISNLMRVLGTEAVQDPTKVEAHVRAQMAKRQKAHEEANAARKLTAEQRKVKKIKKLKEDISQGVHISVYRVRNLSNPAKKFKIEANAGQLYLTGVVVLHKDVNVVVVEGGPKAQKKFKRLMLHRIKWDEQTSNTKGDDDEESDEEAVKKTNKCVLVWEGTAKDRSFGEMKFKQCPTENMAREHFKKHGAEHYWDLALSESVLESTD
partner: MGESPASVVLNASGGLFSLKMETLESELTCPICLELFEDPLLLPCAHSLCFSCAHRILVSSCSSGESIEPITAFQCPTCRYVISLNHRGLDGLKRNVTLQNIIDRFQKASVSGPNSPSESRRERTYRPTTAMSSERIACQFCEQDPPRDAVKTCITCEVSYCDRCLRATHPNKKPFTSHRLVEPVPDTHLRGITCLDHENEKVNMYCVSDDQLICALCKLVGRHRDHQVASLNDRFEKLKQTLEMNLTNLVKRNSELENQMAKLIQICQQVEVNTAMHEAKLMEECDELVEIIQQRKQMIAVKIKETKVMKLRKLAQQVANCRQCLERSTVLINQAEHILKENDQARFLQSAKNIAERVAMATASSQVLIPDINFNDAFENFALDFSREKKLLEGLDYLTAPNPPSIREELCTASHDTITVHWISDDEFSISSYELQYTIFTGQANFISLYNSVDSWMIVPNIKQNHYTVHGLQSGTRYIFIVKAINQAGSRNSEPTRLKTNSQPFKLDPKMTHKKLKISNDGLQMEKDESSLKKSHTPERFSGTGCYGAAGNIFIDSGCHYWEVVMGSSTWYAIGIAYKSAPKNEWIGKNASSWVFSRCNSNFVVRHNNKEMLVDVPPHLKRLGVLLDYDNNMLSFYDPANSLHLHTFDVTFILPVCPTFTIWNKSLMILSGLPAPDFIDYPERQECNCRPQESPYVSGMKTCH
B3: ATP synthase mitochondrial F1 complex assembly factor 2 (Homo sapiens), Q8N5M1 (parent)
chain: MWRSCLRLRDGGRRLLNRPAGGPSASMSPGPTIPSPARAYAPPTERKRFYQNVSITQGEGGFEINLDHRKLKTPQAKLFTVPSEALAIAVATEWDSQQDTIKYYTMHLTTLCNTSLDNPTQRNKDQLIRAAVKFLDTDTICYRVEEPETLVELQRNEWDPIIEWAEKRYGVEISSSTSIMGPSIPAKTREVLVSHLASYNTWALQGIEFVAAQLKSMVLTLGLIDLRLTVEQAVLLSRLEEEYQIQKWGNIEWAHDYELQELRARTAAGTLFIHLCSESTTVKHKLLKE
partner: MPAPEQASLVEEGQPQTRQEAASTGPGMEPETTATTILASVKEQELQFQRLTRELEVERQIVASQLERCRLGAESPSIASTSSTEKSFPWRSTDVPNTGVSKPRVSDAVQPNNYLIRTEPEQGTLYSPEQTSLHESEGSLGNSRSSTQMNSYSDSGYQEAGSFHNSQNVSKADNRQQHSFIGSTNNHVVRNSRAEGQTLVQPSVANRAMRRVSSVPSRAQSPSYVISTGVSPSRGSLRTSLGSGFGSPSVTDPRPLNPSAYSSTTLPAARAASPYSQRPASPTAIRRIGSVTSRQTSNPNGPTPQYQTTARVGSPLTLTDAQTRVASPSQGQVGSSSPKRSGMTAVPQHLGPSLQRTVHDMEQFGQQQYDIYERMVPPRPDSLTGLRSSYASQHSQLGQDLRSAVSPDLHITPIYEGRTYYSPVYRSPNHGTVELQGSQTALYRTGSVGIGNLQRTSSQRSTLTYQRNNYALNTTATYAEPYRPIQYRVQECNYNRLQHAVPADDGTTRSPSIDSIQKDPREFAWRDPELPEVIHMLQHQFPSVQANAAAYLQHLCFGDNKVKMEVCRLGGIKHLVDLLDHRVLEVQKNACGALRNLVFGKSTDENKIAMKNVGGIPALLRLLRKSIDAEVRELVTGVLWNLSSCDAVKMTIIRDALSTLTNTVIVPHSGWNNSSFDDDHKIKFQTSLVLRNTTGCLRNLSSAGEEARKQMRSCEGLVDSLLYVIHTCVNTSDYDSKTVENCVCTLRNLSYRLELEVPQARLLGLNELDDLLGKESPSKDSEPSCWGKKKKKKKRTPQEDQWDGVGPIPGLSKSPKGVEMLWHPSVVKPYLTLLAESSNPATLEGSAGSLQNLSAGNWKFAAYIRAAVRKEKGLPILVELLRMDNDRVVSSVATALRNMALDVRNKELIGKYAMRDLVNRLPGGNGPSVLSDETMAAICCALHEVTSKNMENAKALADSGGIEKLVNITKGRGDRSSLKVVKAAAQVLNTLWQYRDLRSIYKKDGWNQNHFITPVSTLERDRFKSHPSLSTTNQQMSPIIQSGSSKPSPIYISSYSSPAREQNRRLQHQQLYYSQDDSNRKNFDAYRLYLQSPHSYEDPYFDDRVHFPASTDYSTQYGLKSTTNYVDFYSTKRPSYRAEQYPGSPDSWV
B4: Neurogenin-3 (Homo sapiens), Q9Y4Z2 (parent)
chain: MTPQPSGAPTVQVTRETERSFPRASEDEVTCPTSAPPSPTRTRGNCAEAEEGGCRGAPRKLRARRGGRSRPKSELALSKQRRSRRKKANDRERNRMHNLNSALDALRGVLPTFPDDAKLTKIETLRFAHNYIWALTQTLRIADHSLYALEPPAPHCGELGSPGGSPGDWGSLYSPVSQAGSLSPAASLEERPGLLGATFSACLSPGSLAFSDFL
B5: U4/U6 small nuclear ribonucleoprotein Prp31 (Homo sapiens), Q8WWY3 (parent)
chain: B1 chain
partner: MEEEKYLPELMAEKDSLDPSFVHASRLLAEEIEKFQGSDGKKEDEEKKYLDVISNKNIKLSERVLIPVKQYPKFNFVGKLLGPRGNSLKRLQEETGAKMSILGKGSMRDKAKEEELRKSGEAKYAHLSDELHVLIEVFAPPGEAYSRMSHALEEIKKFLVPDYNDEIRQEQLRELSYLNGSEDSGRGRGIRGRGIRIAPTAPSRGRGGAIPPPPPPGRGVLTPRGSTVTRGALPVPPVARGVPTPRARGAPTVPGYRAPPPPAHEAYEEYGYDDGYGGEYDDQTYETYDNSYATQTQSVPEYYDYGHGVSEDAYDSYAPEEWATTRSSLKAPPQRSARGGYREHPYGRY
B6: Bleomycin hydrolase (Homo sapiens), Q13867 (parent)
chain: MSSSGLNSEKVAALIQKLNSDPQFVLAQNVGTTHDLLDICLKRATVQRAQHVFQHAVPQEGKPITNQKSSGRCWIFSCLNVMRLPFMKKLNIEEFEFSQSYLFFWDKVERCYFFLSAFVDTAQRKEPEDGRLVQFLLMNPANDGGQWDMLVNIVEKYGVIPKKCFPESYTTEATRRMNDILNHKMREFCIRLRNLVHSGATKGEISATQDVMMEEIFRVVCICLGNPPETFTWEYRDKDKNYQKIGPITPLEFYREHVKPLFNMEDKICLVNDPRPQHKYNKLYTVEYLSNMVGGRKTLYNNQPIDFLKKMVAASIKDGEAVWFGCDVGKHFNSKLGLSDMNLYDHELVFGVSLKNMNKAERLTFGESLMTHAMTFTAVSEKDDQDGAFTKWRVENSWGEDHGHKGYLCMTDEWFSEYVYEVVVDRKHVPEEVLAVLEQEPIILPAWDPMGALAE
B7: ATP synthase mitochondrial F1 complex assembly factor 2 (Homo sapiens), Q8N5M1 (parent)
chain: B3 chain
partner: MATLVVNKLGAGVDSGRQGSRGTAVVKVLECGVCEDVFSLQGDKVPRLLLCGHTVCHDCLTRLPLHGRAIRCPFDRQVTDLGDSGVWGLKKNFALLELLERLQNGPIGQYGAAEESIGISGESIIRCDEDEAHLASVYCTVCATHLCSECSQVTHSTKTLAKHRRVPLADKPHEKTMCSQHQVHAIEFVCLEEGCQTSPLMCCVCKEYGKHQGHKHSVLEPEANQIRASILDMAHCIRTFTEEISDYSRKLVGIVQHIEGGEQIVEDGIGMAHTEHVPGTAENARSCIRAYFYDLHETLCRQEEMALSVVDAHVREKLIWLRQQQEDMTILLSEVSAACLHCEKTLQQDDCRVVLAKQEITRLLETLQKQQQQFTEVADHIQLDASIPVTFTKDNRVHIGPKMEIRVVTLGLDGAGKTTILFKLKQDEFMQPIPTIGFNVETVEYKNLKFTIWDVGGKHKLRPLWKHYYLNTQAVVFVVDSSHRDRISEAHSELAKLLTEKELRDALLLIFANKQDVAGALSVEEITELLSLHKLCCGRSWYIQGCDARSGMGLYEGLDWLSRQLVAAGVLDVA
B8: Mothers against decapentaplegic homolog 3 (Homo sapiens), P84022 (parent)
chain: MSSILPFTPPIVKRLLGWKKGEQNGQEEKWCEKAVKSLVKKLKKTGQLDELEKAITTQNVNTKCITIPRSLDGRLQVSHRKGLPHVIYCRLWRWPDLHSHHELRAMELCEFAFNMKKDEVCVNPYHYQRVETPVLPPVLVPRHTEIPAEFPPLDDYSHSIPENTNFPAGIEPQSNIPETPPPGYLSEDGETSDHQMNHSMDAGSPNLSPNPMSPAHNNLDLQPVTYCEPAFWCSISYYELNQRVGETFHASQPSMTVDGFTDPSNSERFCLGLLSNVNRNAAVELTRRHIGRGVRLYYIGGEVFAECLSDSAIFVQSPNCNQRYGWHPATVCKIPPGCNLKIFNNQEFAALLAQSVNQGFEAVYQLTRMCTIRMSFVKGWGAEYRRQTVTSTPCWIELHLNGPLQWLDKVLTQMGSPSIRCSSVS
partner: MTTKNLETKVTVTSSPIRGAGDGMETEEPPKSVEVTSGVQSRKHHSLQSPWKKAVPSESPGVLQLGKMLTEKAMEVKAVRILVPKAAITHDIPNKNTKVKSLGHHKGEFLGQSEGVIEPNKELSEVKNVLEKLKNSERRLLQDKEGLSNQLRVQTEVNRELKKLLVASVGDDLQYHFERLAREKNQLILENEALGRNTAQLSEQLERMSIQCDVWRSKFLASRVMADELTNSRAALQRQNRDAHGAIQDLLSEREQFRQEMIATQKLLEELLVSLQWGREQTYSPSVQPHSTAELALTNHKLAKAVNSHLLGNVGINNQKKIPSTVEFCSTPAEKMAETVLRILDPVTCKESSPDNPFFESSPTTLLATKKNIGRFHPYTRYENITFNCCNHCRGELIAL

Variants of: B1
Conditions: with kctd6_human KCTD6, Q8NC69

Variant | effect of a mutation on the interaction
L107V | with no effect

Variants of: B2
Conditions: with MID2, Q9UJV3-2

Variant | effect of a mutation on the interaction
T494M | with no effect
A489D | with no effect
P493S | with no effect

Variants of: B3
Conditions: with PKP4, Q99569-2

Variant | effect of a mutation on the interaction
W94R | disrupting interaction strength

Variants of: B4
Conditions: with TCF12, Q99081-3
Sequence of TCF12, Q99081-3 (Q99081 other isoform, or with tags, fused parts or gaps): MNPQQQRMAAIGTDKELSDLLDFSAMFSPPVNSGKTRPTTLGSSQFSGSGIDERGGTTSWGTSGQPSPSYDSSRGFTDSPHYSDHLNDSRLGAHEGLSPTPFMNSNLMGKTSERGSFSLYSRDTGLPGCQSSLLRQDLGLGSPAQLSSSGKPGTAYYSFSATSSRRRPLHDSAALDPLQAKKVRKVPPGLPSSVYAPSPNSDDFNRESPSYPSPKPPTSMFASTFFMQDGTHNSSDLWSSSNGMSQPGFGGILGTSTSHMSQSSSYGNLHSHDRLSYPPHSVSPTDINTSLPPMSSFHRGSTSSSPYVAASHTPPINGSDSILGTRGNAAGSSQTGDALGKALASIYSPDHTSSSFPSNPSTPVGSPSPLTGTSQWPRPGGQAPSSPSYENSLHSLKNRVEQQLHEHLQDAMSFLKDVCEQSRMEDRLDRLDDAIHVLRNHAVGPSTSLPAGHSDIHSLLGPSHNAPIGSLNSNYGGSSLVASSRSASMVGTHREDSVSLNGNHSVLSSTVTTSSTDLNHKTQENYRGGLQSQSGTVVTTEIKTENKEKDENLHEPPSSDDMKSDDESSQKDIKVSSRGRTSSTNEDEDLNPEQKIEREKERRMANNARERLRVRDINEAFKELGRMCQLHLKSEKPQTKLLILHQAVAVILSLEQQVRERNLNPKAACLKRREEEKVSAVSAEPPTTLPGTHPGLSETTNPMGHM

Variant | effect of a mutation on the interaction
F199S | disrupting interaction strength
G167R | disrupting interaction strength

Variants of: B5
Conditions: with khdr2_human KHDRBS2, Q5VWX1

Variant | effect of a mutation on the interaction
L107V | with no effect

Variants of: B6
Conditions: with nud12_human NUDT12, Q9BQG2
Sequence of nud12_human NUDT12, Q9BQG2 (Q9BQG2 whole entry): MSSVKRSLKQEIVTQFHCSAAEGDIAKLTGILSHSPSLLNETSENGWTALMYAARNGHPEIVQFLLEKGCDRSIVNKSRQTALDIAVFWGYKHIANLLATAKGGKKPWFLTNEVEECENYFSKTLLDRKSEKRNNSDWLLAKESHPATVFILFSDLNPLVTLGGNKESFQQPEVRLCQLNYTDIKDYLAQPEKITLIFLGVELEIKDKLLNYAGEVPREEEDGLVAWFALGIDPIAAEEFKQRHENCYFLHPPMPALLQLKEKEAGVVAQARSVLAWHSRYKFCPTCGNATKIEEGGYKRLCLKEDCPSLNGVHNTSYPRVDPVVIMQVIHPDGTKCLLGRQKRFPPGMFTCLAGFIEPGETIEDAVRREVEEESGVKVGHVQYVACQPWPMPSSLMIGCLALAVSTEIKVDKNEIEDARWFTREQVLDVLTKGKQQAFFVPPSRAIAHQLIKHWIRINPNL

Variant | effect of a mutation on the interaction
I443V | with no effect

Variants of: B7
Conditions: with tri23_human TRIM23, P36406

Variant | effect of a mutation on the interaction
W94R | disrupting interaction strength

Variants of: B8
Conditions: with go45_human BLZF1, Q9H2G9

Variant | effect of a mutation on the interaction
I170V | with no effect
